Measurements published in US7109170B2, “Region of factor IXa protease domain that interacts with factor VIIIa and methods therefor” (Saint Louis University, priority 1999, dated 2006).

Experiments:
[1] = from other studies; cited from earlier work
[2] = test system: factor VIIIa; details: from other studies; cited from earlier work
[3] = target: mouse monoclonal antibody (mAb) that inhibits the interaction of factor IXa with factor VIIIa; assay: binding of IX proteins to mAb that interferes with IXa:VIIIa interaction (coagulant based / competition assay)
Description: The ability of the IX mutant proteins to bind to a mAb (Bajaj et al., 1985, supra) which interferes with the interaction of IXa and VIIIa was studied using a coagulant based assay as described in Usharani et al., 1985, J. Clin. Invest.

[4] = target: T1, factor XIa/Ca2+ (Homo sapiens, UniProt P03951); assay: activation of factor IX mutants by factor XIa/Ca2+ (SDS gel); type: biochemical; details: analyzed by SDS gel electrophoresis
T1 construct: purchased Enzyme Research Laboratories (South Bend, Ind.)
Method: The rates of activation of the protease domain factor IX mutants by VIIa/TF and by Factor Xla/Ca^2+ was also determined, under conditions described in Mathur et al., 1997, supra, either by VIIa/TF/Ca^2+ or by factor Xla/Ca^2+. The rates of the mutants were similar to that of IXNP as analyzed by SDS gel electrophoresis.
Various DEGR-ck-inhibited factor IXa proteins were prepared for these experiments as follows. IXNP, IXWT, and each mutant factor IX at 200 μg/ml was activated by factor XIa (2 μg/ml) for 90 min. in TBS, pH 7.4 (0.05 M Tris, 0.15 M NaCl, pH 7.4) containing 5 mM Ca^2+. […] DEGR-IXaNP, DEGR-IXaWT, and various DEGR-IXa mutant proteins were prepared as described in Mathur et al., 1997, supra, and free DEGR-ck was removed as described in Sabharwal et al., 1995, supra and Krishnaswamy, 1992, J. Biol. Chem. 267, 23696–23706.

[5] = test system: Factor IX deficient plasma; assay: coagulant activity of XIa-activated IXa proteins; type: biochemical
[6] = target: T2, factor X (Homo sapiens, UniProt P00742); assay: factor X activation in complete intrinsic Tenase system (IXa, Ca2+, phospholipid, VIIIa); type: biochemical; set-up: Normal human plasma factor IX (IXNP) and factor X were isolated as described in Bajaj and Birktoft; from tissue; host or cells: human plasma (factor X); factor VIII obtained from Dr. Leon Hoyer, American Red Cross; details: 70 pM VIIIa, 0.5 nM IXa, 15 nM X, phospholipid present
Method: (§1) The ability of each activated mutant to activate factor X in the presence and absence of phospholipid and factor VIIIa was determined as follows. The activation was carried out at 37° C. in a 50 μl reaction volume, in TBS/BSA pH 7.4, for various time periods. At the end of the incubation time period, each reaction mixture received 1 μl of 0.5 M EDTA to stop further generation of factor Xa. A 40 μL aliquot was then added to 0.1 ml quartz cuvette containing S-2222 in 75 μL of TBS/BSA, pH 7.4. The final concentration of S-2222 was 100 μM. The p-nitroaniline release was measured continuously (ΔA405/min) for up to 20 min (Sabharwal et al., 1995 supra; Sabharwal et al., 1997, supra). Factor Xa generated was calculated from a standard curve constructed using factor Xa prepared from insolubilized Russell's viper venom.
(§2) Factor X activation measurements were made under four experimental regimes. In one, Ca^2+ and phospholipid were present. In this system activation was carried out for 5–15 minutes and the concentration of each IXa protein was 20 nM, phospholipid was 25 μM, and factor X was 100 nM. In the second regime, Ca^2+, phospholipid and factor VIIIa were present. […] In the third regime, only Ca^2+ was present. Here, activation was carried out for 2–20 min and concentration of each IXa protein was 400 nM and factor X was 1 μM. Finally, in the fourth regime, Ca^2+ and VIIIa were present. Here, activation was carried out for 15–120 sec and the concentration of each IXa protein was 2 μM, VIIIa was 14 nM, and factor X was 400 nM.
(§3) In all of the above factor X activation experiments, the incubation times chosen were those in which the factor Xa generated was always less than 10 nM. This precautionary measure was taken to prevent activation of factor X by the generated factor Xa (see, e.g., Link. and Castellino, 1982, Arch Biochem. Biophys. 215, 215–221). Further, in those incubation mixtures which contained […], control experiments were also performed in which factor VIIIa was omitted. […] In the presence of factor VIIIa, 10 μM phospholipid was used based upon previous observations (Mathur et al., 1997, supra; van Dieijen et al., 1981, J. Biol. Chem. 256, 3433–3442). The concentrations of factor X selected for each set of reaction conditions are those which are below or at the Km values (van Dieijen et al., supra; Fay and Koshibu, 1998, J Biol. Chem. 273, 19049–19054). In this region of the Michaelis-Menton curve, the rate of formation of factor Xa is proportional to the substrate factor X and therefore to the affinity of the factor IXa enzyme for factor X.
Next, the activation of factor X in a complete intrinsic Tenase system (IXa, Ca^2+, phospholipid, VIIIa) was studied.
Target sequence in this assay (P00742 183-488 limits assumed, one chain of several): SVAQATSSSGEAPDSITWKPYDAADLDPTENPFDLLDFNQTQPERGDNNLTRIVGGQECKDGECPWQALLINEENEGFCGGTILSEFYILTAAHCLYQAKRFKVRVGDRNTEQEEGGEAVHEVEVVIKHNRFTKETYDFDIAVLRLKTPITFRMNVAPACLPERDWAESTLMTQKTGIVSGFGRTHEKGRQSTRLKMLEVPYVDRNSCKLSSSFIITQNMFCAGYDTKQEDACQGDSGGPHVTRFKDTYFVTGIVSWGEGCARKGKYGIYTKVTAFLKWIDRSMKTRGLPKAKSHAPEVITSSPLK
Target sequence in this assay (P00742 41-179 limits assumed, one chain of several): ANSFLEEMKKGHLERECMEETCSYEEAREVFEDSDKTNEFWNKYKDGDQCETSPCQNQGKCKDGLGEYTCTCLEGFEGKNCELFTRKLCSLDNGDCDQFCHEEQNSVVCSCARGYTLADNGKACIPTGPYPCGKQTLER

[7] = target: T2, factor X; assay: factor X activation by IXa proteins, Ca2+ and VIIIa, no phospholipid; type: biochemical; set-up: Normal human plasma factor IX (IXNP) and factor X were isolated as described in Bajaj and Birktoft; from tissue; host or cells: human plasma (factor X); factor VIII obtained from Dr. Leon Hoyer, American Red Cross; details: 14 nM VIIIa, 400 nM factor X
Method: as §1, §2, §3
Target sequence in this assay (P00742 183-488 limits assumed, one chain of several): as the sequence (P00742 183-488 limits assumed, one chain of several) above
Target sequence in this assay (P00742 41-179 limits assumed, one chain of several): as the sequence (P00742 41-179 limits assumed, one chain of several) above

[8] = target: T3, factor VIIIa (Homo sapiens, UniProt P00451); assay: inhibition of Xa generation by active site-blocked (DEGR) IXa proteins, absence of phospholipid (Kd,app for VIIIa); type: biochemical; details: active site-blocked (DEGR) IXa proteins, no phospholipid
T3 construct: purchased Dr. Leon Hoyer (American Red Cross, Rockville, Md.)
T3 sequence (P00451 20-759 limits assumed): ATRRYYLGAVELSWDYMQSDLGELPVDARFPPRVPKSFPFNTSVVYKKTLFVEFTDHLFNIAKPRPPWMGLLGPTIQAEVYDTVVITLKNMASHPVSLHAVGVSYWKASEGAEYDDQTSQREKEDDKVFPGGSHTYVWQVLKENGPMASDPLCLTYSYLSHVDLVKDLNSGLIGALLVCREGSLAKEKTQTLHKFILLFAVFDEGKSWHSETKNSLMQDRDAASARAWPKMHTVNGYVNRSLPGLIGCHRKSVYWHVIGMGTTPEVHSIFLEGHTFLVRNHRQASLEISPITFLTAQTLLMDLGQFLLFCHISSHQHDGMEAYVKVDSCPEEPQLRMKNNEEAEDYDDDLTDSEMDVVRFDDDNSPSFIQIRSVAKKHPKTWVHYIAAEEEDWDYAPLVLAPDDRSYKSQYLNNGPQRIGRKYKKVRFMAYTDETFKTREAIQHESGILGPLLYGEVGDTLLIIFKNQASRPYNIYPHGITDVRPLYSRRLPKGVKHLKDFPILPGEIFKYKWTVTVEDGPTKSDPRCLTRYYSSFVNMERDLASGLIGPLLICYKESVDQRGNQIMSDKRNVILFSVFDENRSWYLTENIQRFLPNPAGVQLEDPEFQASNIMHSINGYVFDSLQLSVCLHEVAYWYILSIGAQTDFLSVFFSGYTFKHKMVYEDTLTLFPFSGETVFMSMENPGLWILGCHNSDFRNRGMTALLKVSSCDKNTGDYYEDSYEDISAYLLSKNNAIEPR
T3 sequence (P00451 1668-2351 limits assumed): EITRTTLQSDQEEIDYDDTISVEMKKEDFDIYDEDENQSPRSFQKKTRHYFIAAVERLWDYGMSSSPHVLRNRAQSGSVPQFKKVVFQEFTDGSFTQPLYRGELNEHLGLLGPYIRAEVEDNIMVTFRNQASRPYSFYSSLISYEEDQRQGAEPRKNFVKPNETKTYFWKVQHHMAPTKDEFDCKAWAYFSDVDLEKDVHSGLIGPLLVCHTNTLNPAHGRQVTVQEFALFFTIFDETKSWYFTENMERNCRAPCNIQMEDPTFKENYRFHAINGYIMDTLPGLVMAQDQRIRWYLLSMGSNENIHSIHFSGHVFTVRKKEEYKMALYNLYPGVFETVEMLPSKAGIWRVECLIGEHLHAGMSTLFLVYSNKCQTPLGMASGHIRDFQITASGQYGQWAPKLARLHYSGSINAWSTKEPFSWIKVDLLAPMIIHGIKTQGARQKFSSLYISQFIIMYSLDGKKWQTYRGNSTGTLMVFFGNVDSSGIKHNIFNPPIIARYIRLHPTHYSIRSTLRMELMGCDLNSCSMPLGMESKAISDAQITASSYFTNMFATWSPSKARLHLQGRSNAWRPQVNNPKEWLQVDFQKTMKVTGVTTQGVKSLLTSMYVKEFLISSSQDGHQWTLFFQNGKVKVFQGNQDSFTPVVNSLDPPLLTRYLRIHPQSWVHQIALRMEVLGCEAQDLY
Method: (§4) Apparent Kds of factor VIIIa binding to various active site-blocked factor IXa proteins were determined from inhibition experiments as detailed in Mathur et al., 1997, supra. […] Reactions were carried out for 2 min and the rates of factor X activation were measured as outlined above.
(§5) Various DEGR-ck-inhibited factor IXa proteins were prepared for these experiments as follows. IXNP, IXWT, and each mutant factor IX at 200 μg/ml was activated by factor XIa (2 μg/ml) for 90 min. in TBS, pH 7.4 (0.05 M Tris, 0.15 M NaCl, pH 7.4) containing 5 mM Ca^2+.
(§6) Enzymol. 74, 481–508 given below:
(§7) [formula] where y is the rate of Xa formation in the presence of a given concentration of DEGR-IXa protein represented by x, a is the maximum rate of Xa formation in the absence of DEGR-IXa, and s is the slope factor. Each point was weighted equally and the data were fitted to Equation 1 using the nonlinear regression analysis program obtained from Erithacus Software (GraFit). […] To obtain the Kd,app values for the interaction of DEGR-IXa proteins with factor VIIIa, the following equation was used, as described by Cheng and Prusoff, 1973, Biochem. Pharmacol. 22, 3099–3108 and further discussed by Craig, 1993, Trends Pharmacol. Sci. 6, 68–71.

[9] = target: T2, factor X; assay: factor X activation by IXa proteins, Ca2+ and phospholipid, without VIIIa; type: biochemical; set-up: Normal human plasma factor IX (IXNP) and factor X were isolated as described in Bajaj and Birktoft; from tissue; host or cells: human plasma; details: no VIIIa, 20 nM IXa, 25 μM phospholipid, 100 nM X
Method: as §1
as §2, with “Here, activation was carried out for 15–120 sec and the concentration of each IXa protein was 2 μM, VIIIa was 14 nM, and factor X was 400 nM.” left out
Target sequence in this assay (P00742 183-488 limits assumed): as the sequence (P00742 183-488 limits assumed, one chain of several) above
Target sequence in this assay (P00742 41-179 limits assumed): as the sequence (P00742 41-179 limits assumed, one chain of several) above

[10] = target: T2, factor X; assay: factor X activation by IXa proteins, Ca2+ only; type: biochemical; set-up: Normal human plasma factor IX (IXNP) and factor X were isolated as described in Bajaj and Birktoft; from tissue; host or cells: human plasma; details: 1 μM X, 400 nM IXa, no phospholipid, no VIIIa
Method: as §1
as §2, with “Here, activation was carried out for 15–120 sec and the concentration of each IXa protein was 2 μM, VIIIa was 14 nM, and factor X was 400 nM.” left out
Target sequence in this assay (P00742 183-488 limits assumed): as the sequence (P00742 183-488 limits assumed, one chain of several) above
Target sequence in this assay (P00742 41-179 limits assumed): as the sequence (P00742 41-179 limits assumed, one chain of several) above

[11] = target: T3, factor VIIIa; assay: inhibition of Xa generation by active site-blocked (DEGR) IXa proteins, presence of phospholipid (Kd,app for VIIIa); type: biochemical; details: active site-blocked (DEGR) IXa proteins, 10 μM phospholipid; read-out: Kd, app for interaction with factor VIIIa, PL-plus system
Method: as §4, §5, §6, §7

T1 sequence (P03951 388-625 limits assumed): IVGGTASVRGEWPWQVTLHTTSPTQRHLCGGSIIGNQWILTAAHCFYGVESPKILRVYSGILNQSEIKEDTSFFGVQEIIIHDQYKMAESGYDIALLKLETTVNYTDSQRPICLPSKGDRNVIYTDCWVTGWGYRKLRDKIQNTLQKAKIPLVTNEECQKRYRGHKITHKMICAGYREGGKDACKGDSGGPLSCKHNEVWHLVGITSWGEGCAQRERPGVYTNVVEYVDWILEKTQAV
T1 sequence (P03951 19-387 limits assumed): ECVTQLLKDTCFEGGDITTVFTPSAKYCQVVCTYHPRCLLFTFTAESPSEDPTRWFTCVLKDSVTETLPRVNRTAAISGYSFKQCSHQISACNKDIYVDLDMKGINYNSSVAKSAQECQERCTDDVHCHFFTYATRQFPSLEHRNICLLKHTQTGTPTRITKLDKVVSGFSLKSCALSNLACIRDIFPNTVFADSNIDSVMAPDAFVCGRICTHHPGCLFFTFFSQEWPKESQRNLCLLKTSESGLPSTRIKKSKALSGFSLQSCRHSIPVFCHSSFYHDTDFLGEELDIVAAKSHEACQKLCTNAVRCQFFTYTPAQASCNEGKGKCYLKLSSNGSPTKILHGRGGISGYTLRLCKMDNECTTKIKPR

Substance: R338A: factor IX R338A mutant described by Chang and coworkers [Protein R338A]
- activity of variant [1]: slightly increased activity
- factor VIIIa binding / affinity of variant [2]: without an impairment in factor VIIIa binding

Substance: IXQ50P: factor IX mutant that lacks the EGF1 domain Ca2+ binding site
- Kd [3]: ~15 nM
- rate of activation by factor XIa/Ca2+ [4]: readily activated

Substance: IXPCEGF1: factor IX in which EGF1 residues 52–85 are replaced by residues 51–92 of protein C
- rate of activation by factor XIa/Ca2+ [4]: readily activated

Substance: IXaT335A: activated factor IX mutant T335A
- coagulant activity as compared to IXaNP [5]: ~35%
- X-activation rate, PL-plus system [6]: 1.92 ± 0.11 nM/min
- X-activation rate, PL-plus system ([6]; listed as IXaI335A): ~1.9 nM/min
- X-activation rate, PL-minus system [7]: 1.83 ± 0.18 nM/min

Substance: IXaQ50P: activated EGF1 domain mutant Q50P of factor IX
- Kd, app for interaction with factor VIIIa, PL-minus system [8]: indistinguishable from that of normal IXa
- rate of factor Xa generation [9]: 0.07 nM/min
- rate of factor X activation, Ca2+ only [10]: ~0.39 nM/min

Substance: IXaPCEGF1: activated factor IX with EGF1 domain replaced by that of protein C
- Kd [11]: 5.71 ± 0.82 nM
- Kd, app for interaction with factor VIIIa, PL-minus system [8]: indistinguishable from that of normal IXa
- Kd ([8]; read-out: Kd, app for interaction with factor VIIIa, PL-minus system): 210 ± 10 nM
- rate of factor Xa generation [9]: 0.06 nM/min
- rate of factor X activation, Ca2+ only [10]: ~0.48 nM/min
